The assay concerns the target monoclonal antibody NB206-15B6-F8, raised against MMCN-151 antigen. Nature of the assay: competitive ELISA on Biotin-… coated plate.

In the case of EDIEDGTFSK [synthetic free peptide … (MMCN-151)], the OD (450-650), signal at full inhibition is 0.5 OD (450-650) and the OD (450-650), signal without inhibition was 2 OD (450-650).

(Values after patent publication US20150118698A1.)
